These results are taken from the supplement of paper PMC10567573.

± gives the standard deviation.

A short description of this series: protein stability index of a GFP-peptide fusion (GPS, HEK-293T) (PSI 1-6); higher = more stable. The conditions noted are these: c terminus: a fixed tail appended.
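Further: 24-mer peptide tiles fused after GFP, lentivirally expressed, FACS-sorted into six equal bins by GFP/DsRed ratio, decoded by Illumina sequencing, PSI is the read-weighted mean bin number.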

Turning to EGSRSSGSNRSGSDRRKEKDPKAG [DVL3], the protein stability index came out at 5.38 ± 0.15 (treatment: DMSO) and 5.5 ± 0.2 (treatment: MLN4924 1 uM, 8 h).

For the sequence KIIREIDFYREDEDEEEEEGGEGE [TRIM55], the protein stability index was 5.18 ± 0.26 (treatment: DMSO) and 5.06 ± 0.24 (treatment: MLN4924 1 uM, 8 h).

In the case of KFGRTCLHAAAAGGNVECIKLLQS [ANKRD44], the protein stability index amounted to 2.44 ± 0.45 (treatment: DMSO) and 2.55 ± 0.12 (treatment: MLN4924 1 uM, 8 h).

As for SHYTSPSENMWNTGSTYNLSSGMA [CARM1], the protein stability index is, setting by setting: (treatment: DMSO) 2.84 ± 0.37; (treatment: MLN4924 1 uM, 8 h) 3.14 ± 0.21.

With LLIVKLEEDCAWSQELPPPDPGPS [ZNF263], the protein stability index runs as follows: (treatment: DMSO) 2.33 ± 0.29; (treatment: MLN4924 1 uM, 8 h) 2.42 ± 0.29.

Turning to QLPGLLNFGEFKCSDSDKKCHLWT [CLCN6], the protein stability index by setting is: (treatment: DMSO) 2.56 ± 0.43; (treatment: MLN4924 1 uM, 8 h) 2.45 ± 0.36.

As for PESETSILLSWTPPRSDTIANYEL [PTPRD], the protein stability index (treatment: DMSO) amounted to 3.09 ± 0.35 and the protein stability index (treatment: MLN4924 1 uM, 8 h) came out at 2.96 ± 0.39.

Sequence DPTNWLRCYYYEDTISTIKSVAWE [NCF4] registered a protein stability index (treatment: DMSO) of 2.12 ± 0.47 and a protein stability index (treatment: MLN4924 1 uM, 8 h) of 2.47 ± 0.13.

With KVKTMEVTSVSIELEKNFSNFPRQ [TRIM39], the protein stability index (treatment: DMSO) is 3.15 ± 0.23 and the protein stability index (treatment: MLN4924 1 uM, 8 h) amounted to 3.42 ± 0.36.

With QTGDPTSPIKLSPTSPVYRGSSSG [MTUS2], the protein stability index amounted to 4.76 ± 0.26 (treatment: DMSO) and 4.82 ± 0.2 (treatment: MLN4924 1 uM, 8 h).

VLGADGVCMTFMKQIAGGDVTAKN [INTS3]: the protein stability index came to 3.51 ± 0.26 (treatment: DMSO) and 3.6 ± 0.42 (treatment: MLN4924 1 uM, 8 h).

Take LELQRQREARKRALARKQAQEQLR [RSPH3]: the protein stability index runs as follows: (treatment: DMSO) 3.95 ± 0.31; (treatment: MLN4924 1 uM, 8 h) 4.06 ± 0.49.

Take DRGIKGDITPLMAAANGGHVKIVK [ANKRD17]: the protein stability index runs as follows: (treatment: DMSO) 4.42 ± 0.11; (treatment: MLN4924 1 uM, 8 h) 4.38 ± 0.085.

Consider EMHTSRDHSSQSEEEVVEGEKEVE [BNIP3L], for which the protein stability index reads like this: (treatment: DMSO) 5.682 ± 0.045; (treatment: MLN4924 1 uM, 8 h) 5.59 ± 0.16.

Turning to GRPIKPPKKDLEDGEVPQHAGKKG [BRD3], the protein stability index runs as follows: (treatment: DMSO) 5.41 ± 0.37; (treatment: MLN4924 1 uM, 8 h) 5.55 ± 0.061.

Regarding SNEFKESALTLACYKGHLEMVRFL [ANKRD17], the protein stability index by setting is: (treatment: DMSO) 2.21 ± 0.18; (treatment: MLN4924 1 uM, 8 h) 2.4 ± 0.34.

With LKSMDKNGTMTIDWNEWRDYHLLH [SLC25A25], the protein stability index reads like this: (treatment: DMSO) 2.27 ± 0.05; (treatment: MLN4924 1 uM, 8 h) 2.19 ± 0.28.

With DSEEELAAFCPQLDDSTVARELAI [RETREG3], the protein stability index is 5.12 ± 0.28 (treatment: DMSO) and 5.24 ± 0.19 (treatment: MLN4924 1 uM, 8 h).

The sequence KVFIPSLFLSHVLALGLGIYIGKR [BNIP3L] gave a protein stability index (treatment: DMSO) of 2.34 ± 0.89 and a protein stability index (treatment: MLN4924 1 uM, 8 h) of 2.3 ± 0.6.

For TTVPEVEPPQDSHSRKTVLIKTIE [PRPH], the protein stability index worked out at 4.58 ± 0.3 (treatment: DMSO) and 4.6 ± 0.38 (treatment: MLN4924 1 uM, 8 h).

In the case of EQERRERREQAAAAPFPSPAPASP [TFE3], the protein stability index was found to be 5.52 ± 0.18 (treatment: DMSO) and 5.48 ± 0.14 (treatment: MLN4924 1 uM, 8 h).

As for LRKGFSCVKNELLPSHPLELSEKN [POMP], the protein stability index is 3.61 ± 0.094 (treatment: DMSO) and 3.75 ± 0.24 (treatment: MLN4924 1 uM, 8 h).

As for CSQGQQLATFSSDWEIQEDSRLMC [CCDC3], the protein stability index came to 3.16 ± 0.073 (treatment: DMSO) and 3.03 ± 0.55 (treatment: MLN4924 1 uM, 8 h).

As for REPYYARPEPELETFSPPLPAGPG [CPXM2], the protein stability index amounted to 4.7 ± 0.26 (treatment: DMSO) and 4.47 ± 0.38 (treatment: MLN4924 1 uM, 8 h).

On to VYEDETKVVHAVDGTAENGIHPLS [PALM], for which the protein stability index by setting is: (treatment: DMSO) 4.88 ± 0.24; (treatment: MLN4924 1 uM, 8 h) 5.11 ± 0.11.

Regarding AAPAGSLSRKKRLELDDNLDTERP [TRIB3], the protein stability index worked out at 5.25 ± 0.33 (treatment: DMSO) and 5.27 ± 0.14 (treatment: MLN4924 1 uM, 8 h).

On to ANLKQVKKEDTEKERDLRDVGDWR [TNNI2], for which the protein stability index came out at 5.33 ± 0.076 (treatment: DMSO) and 4.96 ± 0.24 (treatment: MLN4924 1 uM, 8 h).

With CLAKGTFSDVTFILDDGTISAHKP [RHOBTB2], the protein stability index by setting is: (treatment: DMSO) 2.36 ± 0.27; (treatment: MLN4924 1 uM, 8 h) 2.46 ± 0.17.

As for LQYSTQVHTEFTLRNFNSAKDMKK [MATN2], the protein stability index runs as follows: (treatment: DMSO) 3.73 ± 0.3; (treatment: MLN4924 1 uM, 8 h) 4.08 ± 0.32.

QDCGFEHLVPVIEMWADQLTSLKD [CEP70]: the protein stability index runs as follows: (treatment: DMSO) 2.76 ± 0.39; (treatment: MLN4924 1 uM, 8 h) 2.94 ± 0.53.

With MLERRYTPYPNLYPDQSPSEDWTM [CLCN6], the protein stability index is, setting by setting: (treatment: DMSO) 3 ± 0.3; (treatment: MLN4924 1 uM, 8 h) 3.16 ± 0.23.

VEDLVDSLKLALLFYILTFVGAIF [RTN2]: the protein stability index is, setting by setting: (treatment: DMSO) 2.8 ± 0.35; (treatment: MLN4924 1 uM, 8 h) 2.48 ± 0.55.

As to PAITATLLDFMCRIIPNFYPPLEG [INTS3], the protein stability index is, setting by setting: (treatment: DMSO) 3.07 ± 0.13; (treatment: MLN4924 1 uM, 8 h) 3.1 ± 0.32.

As to LEVADFLIKAGADIELGCSTPLME [ANKRD17], the protein stability index amounted to 2.89 ± 0.56 (treatment: DMSO) and 2.82 ± 0.22 (treatment: MLN4924 1 uM, 8 h).

In turn, EFMKTLEKTGPQLTSRIKGDWIGL [DENND6A] came in with a protein stability index (treatment: DMSO) of 2.06 ± 0.23 and a protein stability index (treatment: MLN4924 1 uM, 8 h) of 2.23 ± 0.25.

IYVIGGYDGRSRLSSVECLDYTAD [KLHL12]: the protein stability index came out at 2.86 ± 0.46 (treatment: DMSO) and 2.63 ± 0.41 (treatment: MLN4924 1 uM, 8 h).

Turning to SGRFAGREWYYGNVTRHQAECALN [NCK2], the protein stability index by setting is: (treatment: DMSO) 2.31 ± 0.16; (treatment: MLN4924 1 uM, 8 h) 2.47 ± 0.22.

As to HHSLASSLRSHHTHPSYGPPGVPP [DVL3], the protein stability index came to 3.51 ± 0.29 (treatment: DMSO) and 3.58 ± 0.22 (treatment: MLN4924 1 uM, 8 h).

AAHLKLTSIEEGYERSFIHKIKHK [IQUB] returned a protein stability index (treatment: DMSO) of 3.18 ± 0.24 and a protein stability index (treatment: MLN4924 1 uM, 8 h) of 3.2 ± 0.2.

Consider ASHTVGFTPPTSLTRAGMSYYNSP [CCDC6], for which the protein stability index (treatment: DMSO) was found to be 2.82 ± 0.44 and the protein stability index (treatment: MLN4924 1 uM, 8 h) was found to be 3.18 ± 0.21.

For APSPQEALVRLRETEEMLGKKQEY [CHMP4C], the protein stability index reads like this: (treatment: DMSO) 5.26 ± 0.25; (treatment: MLN4924 1 uM, 8 h) 5.12 ± 0.096.

As to KQRPTKLKSLIRLVKHWYQNCKKK [OAS1], the protein stability index by setting is: (treatment: DMSO) 3.44 ± 0.45; (treatment: MLN4924 1 uM, 8 h) 3.08 ± 0.42.

On to IPLLSSVNVSDRGGRTALHHAALN [ANKRD44], for which the protein stability index reads like this: (treatment: DMSO) 3.42 ± 0.38; (treatment: MLN4924 1 uM, 8 h) 3.16 ± 0.3.

As to VIESFTELSRIVLMRHGMEKIWRP [RAB40C], the protein stability index stood at 3.11 ± 1 (treatment: DMSO) and 2.6 ± 0.59 (treatment: MLN4924 1 uM, 8 h).

Regarding KVLLCHGELRSKSGHKLYIFLFQD [NET1], the protein stability index amounted to 2.62 ± 0.55 (treatment: DMSO) and 2.57 ± 0.57 (treatment: MLN4924 1 uM, 8 h).

As for KTHSSPALSQGHVTGSKTTKDATG [PSD2], the protein stability index runs as follows: (treatment: DMSO) 5.37 ± 0.06; (treatment: MLN4924 1 uM, 8 h) 5.46 ± 0.17.

Take GDWLLTANGSEIHKHVHFSSSFTS [SLC22A15]: the protein stability index runs as follows: (treatment: DMSO) 2.59 ± 0.25; (treatment: MLN4924 1 uM, 8 h) 2.49 ± 0.36.

Consider QQLYRHGKAYRFLFGFSAVSIMYL [JAGN1], for which the protein stability index reads like this: (treatment: DMSO) 2.82 ± 0.2; (treatment: MLN4924 1 uM, 8 h) 3.28 ± 0.93.

Turning to MTVMSGENVDEASAAPGHPQDGSY [KCNA1], the protein stability index (treatment: DMSO) stood at 5.37 ± 0.21 and the protein stability index (treatment: MLN4924 1 uM, 8 h) was 5.12 ± 0.14.

VTTYLHKDYNNLWIIKKHNTNSDP [POMT2]: the protein stability index was determined as 2.31 ± 0.48 (treatment: DMSO) and 2.5 ± 0.23 (treatment: MLN4924 1 uM, 8 h).

On to GLPGAEGVEPAPWAQLEAPARLLL [FANCE], for which the protein stability index reads like this: (treatment: DMSO) 3.33 ± 0.45; (treatment: MLN4924 1 uM, 8 h) 3.3 ± 0.05.

In the case of AQRLRPQDEPRQGCQPEDRRRRII [KCNG1], the protein stability index (treatment: DMSO) came out at 4.92 ± 0.23 and the protein stability index (treatment: MLN4924 1 uM, 8 h) was 4.9 ± 0.1.

Consider EIKDLILPKISDPNFVKDLEEDLY [PI4K2A], for which the protein stability index by setting is: (treatment: DMSO) 3.16 ± 0.5; (treatment: MLN4924 1 uM, 8 h) 3.12 ± 0.38.
